Reference: the DeepSol protein solubility set

Test: soluble on expression in E. coli; label from the status in PepcDB or PDB records

Row | Sequence | soluble on expression in E. coli
1 | MKLTLWTYEGPPHVGAMRVATAMKDLQLVLHGPQGATYADLLFTMIERRNARPPVSFSTFEASHMGTDTAILLKDALAAAHARYKPQAMAVALTCTAELLQDDPNGISRALNLPVPVVPLELPSYSRKENYGADETFRALVRALAVPMERTPEVTCNLLGATALGFRHRDDVAEVTKLLATMGIKVNVCAPLGASPDDLRKLGQAHFNVLMYPETGESAARHLERACKQPFTKIVPIGVGATRDFLAEVSKITGLPVVTDESTLRQPWWSASVDSTYLTGKRVFIFGDGTHVIAAARIAAKEVGFEVVGMGCYNREMARPLRTAAAEYGLEALITDDYLEVEKAIEAAAPELILGTQMERNIAKKLGLPCAVISAPVHVQDFPARYAPQMGFEGANVLFDTWVHPLVMGLEEHLLTMFREDFEFHDAAGASHHGGKAVAREESPVAPADLAPAATSDTPAAPSPVVVTQASGEIRWMPEAERELRKIPFFVRGKAKRNTELYAAHKGVCDITVETLYEAKAHYAR | soluble
2 | MIKQVIQQLRVPDAGIENLQERRYWLQCERAYTYQPIYQTDGRLMAVELLTVVTHPDNPSRRIAPDRYFAELAVRHRIDVVKEQLHQLEQKADFFTRHHLLASVNVDGPTLIAMRRQPDILAAMERLPWLRFELVEHIRLPKDSSFASMCEFGPLWLDDFGTGMANFSALSEVRYDYIKVARELFVMLRQSPEGRNLFTLLLQLMNRYCRGVIVEGVETLEEWRDVQRSPAFAAQGYFLSRPVPLISLEEVILTL | not soluble
3 | MAHHHHHHMDDGTRIPEDVEVFLRAARAKDTFKCAELLKETPSLINSVEAGGFSALHFAAFNGDLEMIRILLEFKPNLELRNYDNNTPLIMAAKGHQNSAIKLLVDAGAEVNLRTPTGGTAAHFAASMGYVDTVRCLVELGADVMHEDSETGTLLHWAAHSGDINCIGEMIYGFKIPINVKDAHGGTALFTALFMKKFEAVEFLLEHGADPRVMIEGDKSTPLHIAVEHANTECVKLLLVFGADPHVANTSGETPTSLAEKAKNNSALRELMKPMLSEEKRKEEAARFKTQGNKVFEGGENVKAAKFYTLAIHLDSTNHVFFSNRAAAYFNQRYYNGAYWDSLRCISLAPDWPKGYFRKAATELAMKKADEALQTCERGLRLDPKNKDLLTIKEEARRQRNK | soluble
4 | MSLSDTIPVFDGHNDFLLRLLRNPANRETIWLKGDGTGHLDLPRMKEGGFAGGFFAIYVPSPQAHDAAHFEAMMDAPPFELPLPPMIRAEQAQPVALAMAGHLLWMERAARGRFKVCRTAAEVRSCHADGIVSGIMHMEGAEAIGADLDALHLFHSLGLRSLGPVWSRPTVFGHGVPFRFPGSPDTGEGLTEAGRRLVAECNRLKIMLDLSHLNEKGFDDVARLSDAPLVATHSNAHAVTPSTRNLTDRQLAMIRESRGMVGLNFATSFLREDGRRSAEMGWEPVLRHLDHLIDRLGEDHVGMGSDFDGATIPQGIADVTGLPALQAAMRAHGYDEPLMRKLCHENWYGLLERTWGEGHHHHHH | soluble
5 | MAIQFELYKSPARKDEEDKELYHARVVNFQHIDTDYLAKEIQQATSLTEGDVKAVLESLSHFMGSRLREGERVHLDGIGYFQVKLNSLEPITSPKLKANQMKLKANIGFKADKKLRSSVSVVKVERSKLKLHSVPRSNEEIDRLLTAYFSNNQILTRSDFQGLCKLTLTTAARHIKRLKEEKKLQNINTRQSPVYVPMPGYYGKPEVEDTVK | not soluble
6 | MGSDKIHHHHHHMHDFLQFWLNEFSRSENPQHVNSVLTRAAATLGYEYAAYGMRRPFPISNPQILMVSNYPDRWQERYIEARFANVDSAVKAALGSDRPVTWSASTNASKSAFWAEALSFGIAHGWSSASRGADGTIGVLSLSRRQDAIDTAEKFRNESIVHWLANVAHASMAPFLPAADEFDPDLTRRETDVLKWTADGKTAYEIALILSISESTVNFHVKNIVSKLGSTNKIQAVAKAALMGML | not soluble
7 | MRVISGSKKGRSLKAVAGTSTRPTTDKVKESIFNMIGPYFDGGRGLDLFAGSGGLGIEALSRGFEHCIFVDRDFKAIQTVKSNLKTLELTKHAQVYRNDAERALHAAAKRETGFRGIFLDPPYKEQKLKALLTLIDEYQMLEEDGFIVAEHDREVELPETVEILLEHHHHHH | soluble
